Blank lines part the entries; values can stand above or below the binder they belong to.
Key:
[1] = target: ribosomes (mono- and poly-ribosomes) of HEK293 cells (human (endogenous in HEK293))
[2] = target: di-ribosome translation complex stalled on a poly(A)-containing transcript in rabbit reticulocyte lysate (rabbit (endogenous in reticulocyte lysate)); assay: pull-down + co-sedimentation; poly(A)-containing transcript translated in RRL supplemented with FLAG-tagged ZNF598; translation complexes affinity purified via the Twin-Strep tag of the nascent chain (StrepTactin, RNC buffer: 50 mM HEPES pH 7.6, 100 mM KOAc, 5 mM Mg(OAc)2, biotin elution), then sucrose gradient; immunoblot for ZNF598, uL2, eS24

ubiquitinated eS10 (immunoblot) in HEK293 cells pre-treated 15 min with low concentrations of anisomycin, emetine or didemnin B [1]: 10%
B1: endogenous ZNF598 (enzyme)
chain: MAAAGGAEGRRAALEAAAAAAPERGGGSCVLCCGDLEATALGRCDHPVCYRCSTKMRVLCEQRYCAVCREELRQVVFGKKLPAFATIPIHQLQHEKKYDIYFADGKVYALYRQLLQHECPRCPELPPFSLFGDLEQHMRRQHELFCCRLCLQHLQIFTYERKWYSRKDLARHRMQGDPDDTSHRGHPLCKFCDERYLDNDELLKHLRRDHYFCHFCDSDGAQDYYSDYAYLREHFREKHFLCEEGRCSTEQFTHAFRTEIDLKAHRTACHSRSRAEARQNRHIDLQFSYAPRHSRRNEGVVGGEDYEEVDRYSRQGRVARAGTRGAQQSRRGSWRYKREEEDREVAAAVRASVAAQQQEEARRSEDQEEGGRPKKEEAAARGPEDPRGPRRSPRTQGEGPGPKETSTNGPVSQEAFSVTGPAAPGCVGVPGALPPPSPKLKDEDFPSLSASTSSSCSTAATPGPVGLALPYAIPARGRSAFQEEDFPALVSSVPKPGTAPTSLVSAWNSSSSSKKVAQPPLSAQATGSGQPTRKAGKGSRGGRKGGPPFTQEEEEDGGPALQELLSTRPTGSVSSTLGLASIQPSKVGKKKKVGSEKPGTTLPQPPPATCPPGALQAPEAPASRAEGPVAVVVNGHTEGPAPARSAPKEPPGLPRPLGSFPCPTPQEDFPALGGPCPPRMPPPPGFSAVVLLKGTPPPPPPGLVPPISKPPPGFSGLLPSPHPACVPSPATTTTTKAPRLLPAPRAYLVPENFRERNLQLIQSIRDFLQSDEARFSEFKSHSGEFRQGLISAAQYYKSCRDLLGENFQKVFNELLVLLPDTAKQQELLSAHTDFCNREKPLSTKSKKNKKSAWQATTQQAGLDCRVCPTCQQVLAHGDASSHQALHAARDDDFPSLQAIARIIT

percent of ZNF598 co-fractionating with ribosomes [2]: 70 to 80%
B2: ZNF598-TEV-3xFlag (human) (enzyme)
chain: B1 chain
